Target: Bovine serum albumin (Bos taurus, UniProt P02769 P02769:25-607)
Experiment: EMSA; BSA control
Description: To compare the affinity between NRSE dsDNA and NRSE dsRNA to NRSF/REST protein, an electrophoretic mobility shift assay (EMSA) was performed. NRSF/REST with cMyc-tag was expressed in 293T cells and immunoprecipitated with anti-cMyc antiboby. After purification, the protein was incubated with either NRSE dsDNAs or dsRNAs. A range of NRSF/REST protein concentrations was tested; the highest one tested produced a shift in dsDNA migration, whereas a 16-fold lower concentration of NRSF/REST protein was enough to produce a shift in dsRNA (FIG. 6C). […] Binding of NRSF/REST to the sequence of the MCS control dsRNAs or dsDNAs was not observed. […] This highly specific binding between NRSE dsRNA and NRSF/REST protein may contribute to a functional switch of the NRSF/REST machinery from transcriptional repressor to activator.

Bovine serum albumin, sequence (P02769 25-607, one chain of several): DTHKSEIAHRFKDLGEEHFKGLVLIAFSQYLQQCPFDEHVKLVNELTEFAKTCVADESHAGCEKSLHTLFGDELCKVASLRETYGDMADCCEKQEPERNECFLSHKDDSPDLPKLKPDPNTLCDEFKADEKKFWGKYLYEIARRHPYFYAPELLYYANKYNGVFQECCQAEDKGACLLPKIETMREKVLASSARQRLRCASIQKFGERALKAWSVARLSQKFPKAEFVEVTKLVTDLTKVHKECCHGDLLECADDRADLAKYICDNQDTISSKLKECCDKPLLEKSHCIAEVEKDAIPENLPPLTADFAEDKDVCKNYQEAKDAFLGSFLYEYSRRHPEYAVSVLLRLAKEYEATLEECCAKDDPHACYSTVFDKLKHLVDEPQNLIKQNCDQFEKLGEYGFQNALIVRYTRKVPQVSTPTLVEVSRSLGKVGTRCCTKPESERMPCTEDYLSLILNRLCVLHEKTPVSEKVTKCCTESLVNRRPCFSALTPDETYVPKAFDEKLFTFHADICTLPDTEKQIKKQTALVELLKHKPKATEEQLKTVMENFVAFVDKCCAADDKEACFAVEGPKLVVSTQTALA

Row | Binder | binding result
1 | NRSE/RE1 dsDNA (dsDNA) DNA 1: TTCAGCACCACGGACAGCGCC DNA 2: GGCGCTGTCCGTGGTGCTGAA | no binding
2 | NRSE dsRNA (dsRNA) RNA 1: UUCAGCACCACGGACAGCGCC RNA 2: GGCGCUGUCCGUGGUGCUGAA | no binding
